# B1: GLS3000 N53T one-arm antibody (antibody, human IgG1, kappa, L234A L235A, N297A, name in Kabat numbering)
# heavy: QVQLVESGGGVVQPGRSLRLSCAASGFTFSNAWMHWVRQAPGKGLEWVAQIKAKSNNYATYYAESVKGRFTISRDDSKNSLYLQMNSLKTEDTAVYYCRYVHYGAYYGVDAWGQGTTVTVSSASTKGPSVFPLAPSSKSTSGGTAALGCLVKDYFPEPVTVSWNSGALTSGVHTFPAVLQSSGLYSLSSVVTVPSSSLGTQTYICNVNHKPSNTKVDKKVEPKSCDKTHTCPPCPAPEAAGGPSVFLFPPKPKDTLMISRTPEVTCVVVDVSHEDPEVKFNWYVDGVEVHNAKTKPREEQYASTYRVVSVLTVLHQDWLNGKEYKCKVSNKALPAPIEKTISKAKGQPREPQVYTLPPSRCELTKNQVSLSCAVKGFYPSDIAVEWESNGQPENNYKTTPPVLDSDGSFFLVSKLTVDKSRWQQGNVFSCSVMHEALHNHYTQKSLSLSPDYKDDDDK
# chain: EPKSSDKTHTCPPCPAPELLGGPSVFLFPPKPKDTLMISRTPEVTCVVVDVSHEDPEVKFNWYVDGVEVHNAKTKPREEQYNSTYRVVSVLTVLHQDWLNGKEYKCKVSNKALPAPIEKTISKAKGQPREPQVCTLPPSRDELTKNQVSLWCLVKGFYPSDIAVEWESNGQPENNYKTTPPVLDSDGSFFLYSKLTVDKSRWQQGNVFSCSVMHEALHNRYTQKSLSLSP
# light: DIVMTQSPLSLPVTPGEPASISCRSSQSLVHSNRNTYLHWYQQKPGQAPRLLIYKVSTRFSGVPDRFSGSGSGTDFTLKISRVEAEDVGVYYCGQGTQVPYTFGQGTKLEIKRTVAAPSVFIFPPSDEQLKSGTASVVCLLNNFYPREAKVQWKVDNALQSGNSQESVTEQDSKDSTYSLSSTLTLSKADYEKHKVYACEVTHQGLSSPVTKSFNRGEC
# B2: GLS3000 N53Y one-arm antibody (antibody, human IgG1, kappa, L234A L235A, N297A, name in Kabat numbering)
# heavy: QVQLVESGGGVVQPGRSLRLSCAASGFTFSNAWMHWVRQAPGKGLEWVAQIKAKSNNYATYYAESVKGRFTISRDDSKNSLYLQMNSLKTEDTAVYYCRYVHYGAYYGVDAWGQGTTVTVSSASTKGPSVFPLAPSSKSTSGGTAALGCLVKDYFPEPVTVSWNSGALTSGVHTFPAVLQSSGLYSLSSVVTVPSSSLGTQTYICNVNHKPSNTKVDKKVEPKSCDKTHTCPPCPAPEAAGGPSVFLFPPKPKDTLMISRTPEVTCVVVDVSHEDPEVKFNWYVDGVEVHNAKTKPREEQYASTYRVVSVLTVLHQDWLNGKEYKCKVSNKALPAPIEKTISKAKGQPREPQVYTLPPSRCELTKNQVSLSCAVKGFYPSDIAVEWESNGQPENNYKTTPPVLDSDGSFFLVSKLTVDKSRWQQGNVFSCSVMHEALHNHYTQKSLSLSPDYKDDDDK
# chain: EPKSSDKTHTCPPCPAPELLGGPSVFLFPPKPKDTLMISRTPEVTCVVVDVSHEDPEVKFNWYVDGVEVHNAKTKPREEQYNSTYRVVSVLTVLHQDWLNGKEYKCKVSNKALPAPIEKTISKAKGQPREPQVCTLPPSRDELTKNQVSLWCLVKGFYPSDIAVEWESNGQPENNYKTTPPVLDSDGSFFLYSKLTVDKSRWQQGNVFSCSVMHEALHNRYTQKSLSLSP
# light: DIVMTQSPLSLPVTPGEPASISCRSSQSLVHSNRNTYLHWYQQKPGQAPRLLIYKVSYRFSGVPDRFSGSGSGTDFTLKISRVEAEDVGVYYCGQGTQVPYTFGQGTKLEIKRTVAAPSVFIFPPSDEQLKSGTASVVCLLNNFYPREAKVQWKVDNALQSGNSQESVTEQDSKDSTYSLSSTLTLSKADYEKHKVYACEVTHQGLSSPVTKSFNRGEC
# B3: GLS3000 P95D one-arm antibody (antibody, human IgG1, kappa, L234A L235A, N297A, name in Kabat numbering)
# heavy: QVQLVESGGGVVQPGRSLRLSCAASGFTFSNAWMHWVRQAPGKGLEWVAQIKAKSNNYATYYAESVKGRFTISRDDSKNSLYLQMNSLKTEDTAVYYCRYVHYGAYYGVDAWGQGTTVTVSSASTKGPSVFPLAPSSKSTSGGTAALGCLVKDYFPEPVTVSWNSGALTSGVHTFPAVLQSSGLYSLSSVVTVPSSSLGTQTYICNVNHKPSNTKVDKKVEPKSCDKTHTCPPCPAPEAAGGPSVFLFPPKPKDTLMISRTPEVTCVVVDVSHEDPEVKFNWYVDGVEVHNAKTKPREEQYASTYRVVSVLTVLHQDWLNGKEYKCKVSNKALPAPIEKTISKAKGQPREPQVYTLPPSRCELTKNQVSLSCAVKGFYPSDIAVEWESNGQPENNYKTTPPVLDSDGSFFLVSKLTVDKSRWQQGNVFSCSVMHEALHNHYTQKSLSLSPDYKDDDDK
# chain: EPKSSDKTHTCPPCPAPELLGGPSVFLFPPKPKDTLMISRTPEVTCVVVDVSHEDPEVKFNWYVDGVEVHNAKTKPREEQYNSTYRVVSVLTVLHQDWLNGKEYKCKVSNKALPAPIEKTISKAKGQPREPQVCTLPPSRDELTKNQVSLWCLVKGFYPSDIAVEWESNGQPENNYKTTPPVLDSDGSFFLYSKLTVDKSRWQQGNVFSCSVMHEALHNRYTQKSLSLSP
# light: DIVMTQSPLSLPVTPGEPASISCRSSQSLVHSNRNTYLHWYQQKPGQAPRLLIYKVSNRFSGVPDRFSGSGSGTDFTLKISRVEAEDVGVYYCGQGTQVDYTFGQGTKLEIKRTVAAPSVFIFPPSDEQLKSGTASVVCLLNNFYPREAKVQWKVDNALQSGNSQESVTEQDSKDSTYSLSSTLTLSKADYEKHKVYACEVTHQGLSSPVTKSFNRGEC
# B4: GLS3000 N53V one-arm antibody (antibody, human IgG1, kappa, L234A L235A, N297A, name in Kabat numbering)
# heavy: QVQLVESGGGVVQPGRSLRLSCAASGFTFSNAWMHWVRQAPGKGLEWVAQIKAKSNNYATYYAESVKGRFTISRDDSKNSLYLQMNSLKTEDTAVYYCRYVHYGAYYGVDAWGQGTTVTVSSASTKGPSVFPLAPSSKSTSGGTAALGCLVKDYFPEPVTVSWNSGALTSGVHTFPAVLQSSGLYSLSSVVTVPSSSLGTQTYICNVNHKPSNTKVDKKVEPKSCDKTHTCPPCPAPEAAGGPSVFLFPPKPKDTLMISRTPEVTCVVVDVSHEDPEVKFNWYVDGVEVHNAKTKPREEQYASTYRVVSVLTVLHQDWLNGKEYKCKVSNKALPAPIEKTISKAKGQPREPQVYTLPPSRCELTKNQVSLSCAVKGFYPSDIAVEWESNGQPENNYKTTPPVLDSDGSFFLVSKLTVDKSRWQQGNVFSCSVMHEALHNHYTQKSLSLSPDYKDDDDK
# chain: EPKSSDKTHTCPPCPAPELLGGPSVFLFPPKPKDTLMISRTPEVTCVVVDVSHEDPEVKFNWYVDGVEVHNAKTKPREEQYNSTYRVVSVLTVLHQDWLNGKEYKCKVSNKALPAPIEKTISKAKGQPREPQVCTLPPSRDELTKNQVSLWCLVKGFYPSDIAVEWESNGQPENNYKTTPPVLDSDGSFFLYSKLTVDKSRWQQGNVFSCSVMHEALHNRYTQKSLSLSP
# light: DIVMTQSPLSLPVTPGEPASISCRSSQSLVHSNRNTYLHWYQQKPGQAPRLLIYKVSVRFSGVPDRFSGSGSGTDFTLKISRVEAEDVGVYYCGQGTQVPYTFGQGTKLEIKRTVAAPSVFIFPPSDEQLKSGTASVVCLLNNFYPREAKVQWKVDNALQSGNSQESVTEQDSKDSTYSLSSTLTLSKADYEKHKVYACEVTHQGLSSPVTKSFNRGEC
# B5: GLS3000 N53W one-arm antibody (antibody, human IgG1, kappa, L234A L235A, N297A, name in Kabat numbering)
# heavy: QVQLVESGGGVVQPGRSLRLSCAASGFTFSNAWMHWVRQAPGKGLEWVAQIKAKSNNYATYYAESVKGRFTISRDDSKNSLYLQMNSLKTEDTAVYYCRYVHYGAYYGVDAWGQGTTVTVSSASTKGPSVFPLAPSSKSTSGGTAALGCLVKDYFPEPVTVSWNSGALTSGVHTFPAVLQSSGLYSLSSVVTVPSSSLGTQTYICNVNHKPSNTKVDKKVEPKSCDKTHTCPPCPAPEAAGGPSVFLFPPKPKDTLMISRTPEVTCVVVDVSHEDPEVKFNWYVDGVEVHNAKTKPREEQYASTYRVVSVLTVLHQDWLNGKEYKCKVSNKALPAPIEKTISKAKGQPREPQVYTLPPSRCELTKNQVSLSCAVKGFYPSDIAVEWESNGQPENNYKTTPPVLDSDGSFFLVSKLTVDKSRWQQGNVFSCSVMHEALHNHYTQKSLSLSPDYKDDDDK
# chain: EPKSSDKTHTCPPCPAPELLGGPSVFLFPPKPKDTLMISRTPEVTCVVVDVSHEDPEVKFNWYVDGVEVHNAKTKPREEQYNSTYRVVSVLTVLHQDWLNGKEYKCKVSNKALPAPIEKTISKAKGQPREPQVCTLPPSRDELTKNQVSLWCLVKGFYPSDIAVEWESNGQPENNYKTTPPVLDSDGSFFLYSKLTVDKSRWQQGNVFSCSVMHEALHNRYTQKSLSLSP
# light: DIVMTQSPLSLPVTPGEPASISCRSSQSLVHSNRNTYLHWYQQKPGQAPRLLIYKVSWRFSGVPDRFSGSGSGTDFTLKISRVEAEDVGVYYCGQGTQVPYTFGQGTKLEIKRTVAAPSVFIFPPSDEQLKSGTASVVCLLNNFYPREAKVQWKVDNALQSGNSQESVTEQDSKDSTYSLSSTLTLSKADYEKHKVYACEVTHQGLSSPVTKSFNRGEC
# B6: GLS3000 P95A one-arm antibody (antibody, human IgG1, kappa, L234A L235A, N297A, name in Kabat numbering)
# heavy: QVQLVESGGGVVQPGRSLRLSCAASGFTFSNAWMHWVRQAPGKGLEWVAQIKAKSNNYATYYAESVKGRFTISRDDSKNSLYLQMNSLKTEDTAVYYCRYVHYGAYYGVDAWGQGTTVTVSSASTKGPSVFPLAPSSKSTSGGTAALGCLVKDYFPEPVTVSWNSGALTSGVHTFPAVLQSSGLYSLSSVVTVPSSSLGTQTYICNVNHKPSNTKVDKKVEPKSCDKTHTCPPCPAPEAAGGPSVFLFPPKPKDTLMISRTPEVTCVVVDVSHEDPEVKFNWYVDGVEVHNAKTKPREEQYASTYRVVSVLTVLHQDWLNGKEYKCKVSNKALPAPIEKTISKAKGQPREPQVYTLPPSRCELTKNQVSLSCAVKGFYPSDIAVEWESNGQPENNYKTTPPVLDSDGSFFLVSKLTVDKSRWQQGNVFSCSVMHEALHNHYTQKSLSLSPDYKDDDDK
# chain: EPKSSDKTHTCPPCPAPELLGGPSVFLFPPKPKDTLMISRTPEVTCVVVDVSHEDPEVKFNWYVDGVEVHNAKTKPREEQYNSTYRVVSVLTVLHQDWLNGKEYKCKVSNKALPAPIEKTISKAKGQPREPQVCTLPPSRDELTKNQVSLWCLVKGFYPSDIAVEWESNGQPENNYKTTPPVLDSDGSFFLYSKLTVDKSRWQQGNVFSCSVMHEALHNRYTQKSLSLSP
# light: DIVMTQSPLSLPVTPGEPASISCRSSQSLVHSNRNTYLHWYQQKPGQAPRLLIYKVSNRFSGVPDRFSGSGSGTDFTLKISRVEAEDVGVYYCGQGTQVAYTFGQGTKLEIKRTVAAPSVFIFPPSDEQLKSGTASVVCLLNNFYPREAKVQWKVDNALQSGNSQESVTEQDSKDSTYSLSSTLTLSKADYEKHKVYACEVTHQGLSSPVTKSFNRGEC
# Biological target: T1, CD3ε homodimer protein (human, UniProt P07766 23-126, limits assumed)
# T1 construct: also called CD3 (CD3ε)
# T1 sequence (P07766 23-126 limits assumed): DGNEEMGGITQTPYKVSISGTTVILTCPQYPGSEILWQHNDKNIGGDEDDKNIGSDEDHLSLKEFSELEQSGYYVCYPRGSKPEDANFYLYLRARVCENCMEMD
# Assay: SPR Biacore T200, CD3ε homodimer on chip;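 further: Light-chain single-residue variant antibodies injected over amine-coupled CD3ε homodimer on a CM4 chip at 25 °C, bound amount divided by that of the GLS3000-containing antibody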
row,Binder,ratio of amount bound vs unaltered GLS3000
1,B1,0.56
2,B2,0.67
3,B3,0.24
4,B4,0.56
5,B5,0.81
6,B6,0.63
